{"source": "the nanobody polyreactivity screen of Harvey et al. (2022)", "data": [{"assay": "yeast display, Sf9 membrane polyspecificity reagent, FACS + sequencing; frameworks hold sequencing errors", "outline": "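Galactose-induced (36–48 hours) yeast carrying a synthetic nanobody display library were exposed to 10% biotinylated, detergent-solubilized Sf9 membrane reagent at 4 °C for 1 hour. FACS followed streptavidin microbead enrichment, using low and high (top ~1%) gates for expression (anti-HA) and reagent binding (streptavidin). Colony PCR, MiSeq 2 × 250 sequencing and CDR-length filtering followed. Labels for polyreactivity reflect the gate of origin.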", "values": [{"sequence": "QVQLVESGGGLVQAGGSLRLSCAASGFIFAVNAMGWYRQAPGKERELVATIRATTTSTYADSVKGRFTISRDNAKNTVYLQMNSLKPEDTAVYYCATDVRTISFEYDYWGQGTQVTVSS", "polyreactivity (PSR sort gate)": "low polyreactivity"}, {"sequence": "QVQLVESGGGLVQAGGSLRLSCAASGFIFAWYAMGWYRQAPGKERELVAAISYSGGSTYYADSVKGRFTISRDNAKNTVYLEMNSLKPEDTAVYYCNKVSRGGSYGHAFDYWGQGTQVTVSS", "polyreactivity (PSR sort gate)": "high polyreactivity"}, {"sequence": "QVQLVESGGGLVQAGGSLRLSCAASGFIFAWYAMGWYRQAPGKERELVASISVSDGSTYYADSVKGRFTISRDNAKNTVYLQMNSLKPEDTAVYYCAAEVSSDYYNSDYYWGQGTQVTVSS", "polyreactivity (PSR sort gate)": "low polyreactivity"}, {"sequence": "QVQLVESGGGLVQAGGSLRLSCAASGFIFAWYAMGWYRQAPGKEREMVAAITSGGRTYYADSVKGRFTISRDNAKNTVYLQMNSLKPEDTAVYYCATDAVASHRPYKYGPQSGSWGQGTQVTVSS", "polyreactivity (PSR sort gate)": "high polyreactivity"}, {"sequence": "QVQLVESGGGLVQAGGSLRLSCAASGFIFAYNAMGWYRQAPGKERELVAAITGSGTRTYYADSVKGRFTISRDKAKNTVYLQMYSLKPEDTAVYYCAARFPRDTYYYWGQGTQVTVSS", "polyreactivity (PSR sort gate)": "high polyreactivity"}, {"sequence": "QVQLVESGGGLVQAGGSLRLSCAASGFIFAYYALGWYRQAPGKERELVAAITWSGGRTYYADSVKGRFTISRDNAKNTVYLQMNSLKPEDTAVYYCNAVRPSVDYGYWGQGTQVTVSS", "polyreactivity (PSR sort gate)": "high polyreactivity"}, {"sequence": "QVQLVESGGGLVQAGGSLRLSCAASGFIFAYYAMGWYRQAPGKERELVAAISSGGRTYYADSVKGRFTISRDNAKNTVYLQMNSLKPEDTAVYYCAAYYRLDYDYWGQGTQVTVSS", "polyreactivity (PSR sort gate)": "high polyreactivity"}, {"sequence": "QVQLVESGGGLVQAGGSLRLSCAASGFIFCTNAMGWYRQAPGKERELVAGISRTGGRTYYADSVKGRFTISRDNAKNTVYLQMNSLKPEDTAVYYCAAVARRHKVYEYDYWGQGTQVTVSS", "polyreactivity (PSR sort gate)": "high polyreactivity"}, {"sequence": "QVQLVESGGGLVQAGGSLRLSCAASGFIFDDNAMGWYRQAPGKERELVATITWSTGSTYYADSVKGRFTISRDNAKNTVYLQMNSLKPEDTAVYYCAKESYFYRYYLAYDYWGQGTQVTVSS", "polyreactivity (PSR sort gate)": "low polyreactivity"}, {"sequence": "QVQLVESGGGLVQAGGSLRLSCAASGFIFDFYTMGWYRQAPGKERELVAAITNGGSTYYADSVKGRFTISRDNAKNTVYLQMNSLKPEDTAVYYCAAYYRSRHHGYDSWGQGTQVTVSS", "polyreactivity (PSR sort gate)": "low polyreactivity"}, {"sequence": "QVQLVESGGGLVQAGGSLRLSCAASGFIFDFYTMGWYSQAPGKERELVAAITNGGSTYYADSVKGRFTISRDNAKNTVYLQMNSLKPEDTAVYYCAAYYRSRHHGYDSWGQGTQVTVSS", "polyreactivity (PSR sort gate)": "low polyreactivity"}, {"sequence": "QVQLVESGGGLVQAGGSLRLSCAASGFIFDGNAMGWYRPAPGKERELVAAIRSGGRTNYADSVNGRFTISRDNAKNTVYLQMNSLKPEDTAVYYCAARSIYPYYYRRDNRYYYWGQGTQVTVSS", "polyreactivity (PSR sort gate)": "high polyreactivity"}, {"sequence": "QVQLVESGGGLVQAGGSLRLSCAASGFIFDGYAMGWYRQAPGKERELVAAISSSGGRTHYADSVKGRFTISRDNAKNTVYLQMNSLKPEDTAVYYCAVRFKWQGYNYWGQGTQVTVSS", "polyreactivity (PSR sort gate)": "high polyreactivity"}, {"sequence": "QVQLVESGGGLVQAGGSLRLSCAASGFIFDINAMGWYRQAPGKERELVAAISYSGGSTYYADSVKGRFTISRDNAKNNVYLQMNSLKPEDTAVYYCAADSGPDSDEGDYWGQGTQVTVSS", "polyreactivity (PSR sort gate)": "low polyreactivity"}, {"sequence": "QVQLVESGGGLVQAGGSLRLSCAASGFIFDINAMGWYRQAPGTERELVADIRGGGSTYYADSVKGRFTISRDNAKNTVYVQMNSLKPEDTAVYYCNALDSYRHRPFDYWGQGTQVTVSS", "polyreactivity (PSR sort gate)": "low polyreactivity"}, {"sequence": "QVQLVESGGGLVQAGGSLRLSCAASGFIFDKYAMGWYRQAPGKERELVAAINWSGDSTYYADSVKGRFTISRDNAKNTVYLQMNSLKPEDTAVYYCNARRPRFRYDYWGQGTQVTVSS", "polyreactivity (PSR sort gate)": "high polyreactivity"}, {"sequence": "QVQLVESGGGLVQAGGSLRLSCAASGFIFDKYSMGWYRQAPGKERELVAAITDTGGNTYYADSVKGRFTISRDNAKNTVYLQMNILKPEDTAVYYSNADYTDYQTYSATTYEYWGQGTQVTVSS", "polyreactivity (PSR sort gate)": "low polyreactivity"}, {"sequence": "QVQLVESGGGLVQAGGSLRLSCAASGFIFDPNAMGWYRLAPGKERELVAAISSSGGRTYYADSVKGRFTISRDNAKNTVYLQMNSLKPEDTAVYYCNARDYSGFQTGASAAFDYWGQGTQVTVSS", "polyreactivity (PSR sort gate)": "low polyreactivity"}, {"sequence": "QVQLVESGGGLVQAGGSLRLSCAASGFIFDPYAMGWYRPAPGKERELVAVITYSAGSTYADSVNGRFTISRDNAKNTVYLQMNSLKPEDTAVYYCAKRWWYNVPLGVLYDYWGQGTQVTVSS", "polyreactivity (PSR sort gate)": "low polyreactivity"}, {"sequence": "QVQLVESGGGLVQAGGSLRLSCAASGFIFDPYAMGWYRQAPGKERELVASINTRGDRTSYADSVKGRFTISRDNAKNTVYLQMNSLKPEDTAVYYCNADAVDQVGPDDDYWGQGTQVTVSS", "polyreactivity (PSR sort gate)": "low polyreactivity"}, {"sequence": "QVQLVESGGGLVQAGGSLRLSCAASGFIFDRNTMGWYRQAPGKERELVATISSTGTTNYADSVKGRFTISRDNAKNTVYLQMNSLKPEDTAVYYCNAYPRWRYVSYYRSYRYDYWGQGTQVTVSS", "polyreactivity (PSR sort gate)": "high polyreactivity"}, {"sequence": "QVQLVESGGGLVQAGGSLRLSCAASGFIFDTNAMGLYRQAPGKERELVATISTSGGSTSYADSVKGRFTISRDNAKNTVYLQMNSLTPEDTAVYYCAARWYFPDRVKYDYWGQGTQVTVSS", "polyreactivity (PSR sort gate)": "low polyreactivity"}, {"sequence": "QVQLVESGGGLVQAGGSLRLSCAASGFIFDTNAMGWSRQAPGKDRELVARISSSAGSTYYAVSVKGRFTISRDNAKNTVYLLMNSLKPEDTAVYYCNADTGLGSLDFDKRDYWGQGTQVTVSS", "polyreactivity (PSR sort gate)": "low polyreactivity"}, {"sequence": "QVQLVESGGGLVQAGGSLRLSCAASGFIFDTYAMGWYRQAPGKERELVAAISWTGTDTYYADSVKGRFTISRDNAKNTVYLQMNSLKPEDTAVYYCATDYGWLYINSIWEYDYWGQGTQVTVSS", "polyreactivity (PSR sort gate)": "high polyreactivity"}, {"sequence": "QVQLVESGGGLVQAGGSLRLSCAASGFIFDWNTMGWYRQAPGKERELVAAITESSGSTYYADSVKGRFTISRDNAKNTVYLQMNSLKPEDTAVYYCAAELDVYVSIGSRFHFDYWGQGTQVTVSS", "polyreactivity (PSR sort gate)": "low polyreactivity"}, {"sequence": "QVQLVESGGGLVQAGGSLRLSCAASGFIFDYNAMGWYRQAPGKERELVAAITSGGGSTYYADSVKGRFTISRDNAKNTVYLQMNSLKPEDTAVYYCNAVPSQHDEFDYWGQGTQVTVSS", "polyreactivity (PSR sort gate)": "low polyreactivity"}, {"sequence": "QVQLVESGGGLVQAGGSLRLSCAASGFIFDYYAMGWYRQAPGKERELVAAITRDGGGTYYADSVKGRFTISRDNAKNTVYLQMNSLKPEDTAVYYCAARRAVRLYYWGQGTQVTVSS", "polyreactivity (PSR sort gate)": "high polyreactivity"}, {"sequence": "QVQLVESGGGLVQAGGSLRLSCAASGFIFDYYAMGWYRQAPGKERELVAAITSRSGSTYYADSVKGRFTISRDNAKNTVYLQMNSLKPEDTAVYYCARRFKYGSTAWRFYYWGQGTQVTVSS", "polyreactivity (PSR sort gate)": "high polyreactivity"}, {"sequence": "QVQLVESGGGLVQAGGSLRLSCAASGFIFDYYAMGWYRQAPGKERELVAAITWSGGSTYYADSVKGRFTISRDNAKYTVFLQMNSLKPEDTAVYYCNAYNWTYCEYEYWGQGTQVTVSS", "polyreactivity (PSR sort gate)": "high polyreactivity"}, {"sequence": "QVQLVESGGGLVQAGGSLRLSCAASGFIFDYYAMGWYRQAPGTEREFVAAITWDGGSTYYADSVKGRFTISRDNAKNTVYLQMNSLKTEDTAVYYCAAETWGEYGYWGQGTQVTVSS", "polyreactivity (PSR sort gate)": "low polyreactivity"}, {"sequence": "QVQLVESGGGLVQAGGSLRLSCAASGFIFDYYAMGWYRQAPVKERELVAAISWSGGSTYYADSVKGRFTISRDNAKNTVYLQMNSLKPEDTAVYYCNSYYQGYWGDFDYWGQGTQVTVSS", "polyreactivity (PSR sort gate)": "high polyreactivity"}, {"sequence": "QVQLVESGGGLVQAGGSLRLSCAASGFIFDYYTMGWYRQAPGKERELVASIRSSGSSTYYADSVKGRFTISRDNAKNTVYLQMNSLKPEDTAVYYCARRYVVNRDWGDDYWGQGTQVTVSS", "polyreactivity (PSR sort gate)": "high polyreactivity"}]}]}
